{"source": "paper PMC5683654", "about": "“Interaction between the flagellar pocket collar and the hook complex via a novel microtubule-binding protein in Trypanosoma brucei” (PLoS Pathogens, 2017)", "molecules": {"B1": {"name": "FPC4-B1BD (aa 357–440) (domain or fragment, Trypanosoma brucei, UniProt Q57YN8 357-440, looked up)", "chain": "SQPPSGMISACTPISSPSRGRGTGWAKSLYNELREEGSLSPYLRYLPSDVSGGEWDKPDVGDVLCFQAKEPQRRRVLTSPVPDE", "notes": "FPC4 of Trypanosoma brucei, Tb927.8.6370, aa 357-440, cloned into the custom vector MalpET; also called TbFPC4-B1BD; MBP-tagged FPC4-B1BD; source: E. coli, purified (Ni-HiTrap, tag removed with TEV, Superdex-200); not shown: MBP, N-terminal, cleaved; His10, N-terminal, cleaved"}, "B2": {"name": "BILBO1-NTD’ (aa 1–120) (domain or fragment)", "chain": "MAFLVQVAADIFNNKVNFELSFPSRPSISELTRSAETAFSNEISLRRPDNVPSHKFHSSKIKMYDEELNKWVDLIREDQLTDYCQLYVFQPPNEWHKESQKEIPPAMKPPSSGQRHSAGG"}}, "key": {"[1]": {"target": "taxol-stabilised microtubules (polymerised tubulin)", "assay": "co-sedimentation; microtubule binding assay; increasing concentrations of FPC4 fragment with 7.2 μM polymerised tubulin in PEMD, 1 h at 22°C, 16,100 g; pellets and supernatants on SDS-PAGE"}, "[2]": {"target": "BILBO1-Edge-Mut (K60A/K62A), bacterially expressed BILBO1-NTD’ (Trypanosoma brucei)", "assay": "ITC; 25°C, 20 mM Tris-HCl pH 8.0, 50 mM NaCl; 50 μM BILBO1-NTD’ in the cell titrated with 600 μM FPC4-B1BD; one-site binding model"}, "BILBO1-NTD’ (aa 1–120) [3]": {"target": "T1, BILBO1-NTD’ (aa 1–120) (Trypanosoma brucei, UniProt Q382W6 1-120)", "T1 construct": "BILBO1 of Trypanosoma brucei, Tb927.11.12150, aa 1-120, cloned into pET-15b; also called TbBILBO1-NTD’; 6His-BILBO1-NTD’; source: E. coli, purified (Ni-HiTrap, tag removed with thrombin, Superdex-200); not shown: His6, N-terminal, cleaved", "T1 sequence (looked up)": "B2 chain", "assay": "SEC-MALS; static light scattering on Superdex 200 10/300 GL; purified proteins mixed at molar ratio ~1:2, total 2 mg/ml, 30 min at room temperature", "details": "both partners purified"}, "BILBO1-NTD’ (aa 1–120) [4]": {"target": "T1, BILBO1-NTD’ (aa 1–120)", "assay": "ITC; 25°C, 20 mM Tris-HCl pH 8.0, 50 mM NaCl; 50 μM BILBO1-NTD’ in the cell titrated with 600 μM FPC4-B1BD; one-site binding model", "details": "both partners purified"}, "FPC4-B1BD (aa 357–440)": {"target": "T2, FPC4-B1BD (aa 357–440) (Trypanosoma brucei, UniProt Q57YN8 357-440)", "T2 chain": "B1 chain", "assay": "ITC"}}}
{"molecule": "FPC4-1-260-6His (domain or fragment)", "values": [{"measurement": "saturating concentration", "setting": "[1]", "value": 5.6, "unit": "µM"}]}
{"molecule": "FPC4-B1BD (aa 357–440) (from UniProt Q57YN8 357-440) (domain or fragment)", "values": [{"measurement": "Kd", "setting": "[2]", "value": 18, "unit": "µM"}]}
{"molecule": "B1", "values": [{"measurement": "stoichiometry N", "setting": "BILBO1-NTD’ (aa 1–120) [3]", "value": 1}, {"measurement": "Kd", "setting": "BILBO1-NTD’ (aa 1–120) [4]", "value": "~5", "unit": "µM"}]}
{"molecule": "B2", "values": [{"measurement": "Kd", "setting": "FPC4-B1BD (aa 357–440)", "value": 5.4, "unit": "µM"}]}
